Test results from publication PMC8104898.

Molecular target: fibronectin fragment FN7-10 (type III domains 7 to 10), wild type
Test: ELISA

- reduction of binding against the wild-type ectodomain: 60%
Substance: recombinant integrin α5(N275A)β1 ectodomain, unclasped (from UniProt P08648;P05556) (complex)
